This is an account of results in patent US20150118700.

Substitutions are numbered along the chain they refer to.

Data set [1] addresses T1, α-fructosyl valyl histidine.
T1 chain: VH

For data set [2], the target named is T2, α-fructosyl hexapeptide (α-fructosyl-valyl-histidyl-leucyl-threonyl-propyl-glutamic acid).
T2 chain: VHLTPE

B1: CFP-T7-H35 (protein)
chain: MTSNRADTRVIVVGGGGTIGSSTALHLVRSGYAPANITVLDTFEIPSAQSAGHDLNKIMGIDHRNKVDLQMSLEARQMWKEDELFQPFFHNTGRMDCEHTPKGIEKLKKLYQKLHDAGAGLEKTHAWLDNEDEILSKMPLLQRDQIQGWKAIWSQDGGWLAAAKAINAIGQFLKERGVKFGFGGAGSFKQPLFDDEGTTCIGVETADGTKYYADKVVLAAGAWSPTLVDLEDQCCSKAWVYAHIQLTPEEAAEYKGVPVVYNGEFGFFFEPDEFGVIKVCDEFPGFSRFKEHQPYGAPSPKRISVPRSHAKHPTDTYPDASEVSIKKAIATFLPRFQDKELFNRALCWCTDTADSALLMCEHPKWKNFILATGDSGHSFKILPNVGKYVVELIEGRLPEEMAYQWRWRPGGDALKSRRAAPPKDLADMPGWKHDPKL
B1 gave a Specific activity (U/mg), 1 mM αFVH in data set [1] of 1.9 U/mg. In data set [2], the Specific activity (U/mg), 1 mM αF6P turned out to be 4.27 U/mg; the “specific activity on αF6P, fold over FAOAo2 (Present Invention 25/Comparative Example 2)” value is recorded as 2 times (Present Invention 26/Comparative Example 3) to 1,940 times (Present Invention 25/Comparative Example 2) greater; the “ΔA at 751 nm (hydrogen peroxide generated upon oxidation of αF6P) against αF6P concentration” value was “a favorable correlation was developed between ΔA and αF6P concentration in the range of αF6P concentration from 0.5 µM to 10 µM”; the αF6P oxidation activity ratio, relative to CFP-T7-H28 = 100 as the table shows (relative (CFP-T7-H28 = 100)) amounted to 206.

B2: CFP-T7-62D (protein)
chain: B1 chain with H63L, K102E, K106D, L110Q, K113A, S355A
B2 came in with a Specific activity (U/mg), 1 mM αFVH in data set [1] of 1.62 U/mg. In data set [2], the Specific activity (U/mg), 1 mM αF6P was determined as 0.018 U/mg and the “specific activity on αF6P, fold over PnFX (Present Invention 26/Comparative Example 3)” value is recorded as 2 times (Present Invention 26/Comparative Example 3) to 1,940 times (Present Invention 25/Comparative Example 2) greater.
